According to PMC13193388, “Dimerization‐dependent NOTCH receptor transactivation unveils a class of highly selective NOTCH signalling inhibitors” (The Febs Journal, 2025):

Target: T1, purified recombinant HIS epitope-tagged NOTCH3 extracellular domain (human, UniProt Q9UM47 40-1643, glycosylated)
T1 construct: NOTCH3, human, complete extracellular domain; written as one chain so that the self-association rows stand for chain with chain; also called N3 ECD; NOTCH3-ECD protein; source: PEC.3.30 (modified Per.E2A) cells, purified from supernatant (HisTrap HP, Superdex 200); not shown: HIS, C-terminal, kept
Assay: SPR; Biacore T200; NOTCH3-ECD immobilized on NTA Series S chip by nickel-NTA capture-coupling (about 3500 RU); peptides flowed at 30 μL/min; 50 mM HEPES, 150 mM NaCl, 25 °C; steady-state affinity model
Settings: both partners purified

T1 sequence (Q9UM47 40-1643): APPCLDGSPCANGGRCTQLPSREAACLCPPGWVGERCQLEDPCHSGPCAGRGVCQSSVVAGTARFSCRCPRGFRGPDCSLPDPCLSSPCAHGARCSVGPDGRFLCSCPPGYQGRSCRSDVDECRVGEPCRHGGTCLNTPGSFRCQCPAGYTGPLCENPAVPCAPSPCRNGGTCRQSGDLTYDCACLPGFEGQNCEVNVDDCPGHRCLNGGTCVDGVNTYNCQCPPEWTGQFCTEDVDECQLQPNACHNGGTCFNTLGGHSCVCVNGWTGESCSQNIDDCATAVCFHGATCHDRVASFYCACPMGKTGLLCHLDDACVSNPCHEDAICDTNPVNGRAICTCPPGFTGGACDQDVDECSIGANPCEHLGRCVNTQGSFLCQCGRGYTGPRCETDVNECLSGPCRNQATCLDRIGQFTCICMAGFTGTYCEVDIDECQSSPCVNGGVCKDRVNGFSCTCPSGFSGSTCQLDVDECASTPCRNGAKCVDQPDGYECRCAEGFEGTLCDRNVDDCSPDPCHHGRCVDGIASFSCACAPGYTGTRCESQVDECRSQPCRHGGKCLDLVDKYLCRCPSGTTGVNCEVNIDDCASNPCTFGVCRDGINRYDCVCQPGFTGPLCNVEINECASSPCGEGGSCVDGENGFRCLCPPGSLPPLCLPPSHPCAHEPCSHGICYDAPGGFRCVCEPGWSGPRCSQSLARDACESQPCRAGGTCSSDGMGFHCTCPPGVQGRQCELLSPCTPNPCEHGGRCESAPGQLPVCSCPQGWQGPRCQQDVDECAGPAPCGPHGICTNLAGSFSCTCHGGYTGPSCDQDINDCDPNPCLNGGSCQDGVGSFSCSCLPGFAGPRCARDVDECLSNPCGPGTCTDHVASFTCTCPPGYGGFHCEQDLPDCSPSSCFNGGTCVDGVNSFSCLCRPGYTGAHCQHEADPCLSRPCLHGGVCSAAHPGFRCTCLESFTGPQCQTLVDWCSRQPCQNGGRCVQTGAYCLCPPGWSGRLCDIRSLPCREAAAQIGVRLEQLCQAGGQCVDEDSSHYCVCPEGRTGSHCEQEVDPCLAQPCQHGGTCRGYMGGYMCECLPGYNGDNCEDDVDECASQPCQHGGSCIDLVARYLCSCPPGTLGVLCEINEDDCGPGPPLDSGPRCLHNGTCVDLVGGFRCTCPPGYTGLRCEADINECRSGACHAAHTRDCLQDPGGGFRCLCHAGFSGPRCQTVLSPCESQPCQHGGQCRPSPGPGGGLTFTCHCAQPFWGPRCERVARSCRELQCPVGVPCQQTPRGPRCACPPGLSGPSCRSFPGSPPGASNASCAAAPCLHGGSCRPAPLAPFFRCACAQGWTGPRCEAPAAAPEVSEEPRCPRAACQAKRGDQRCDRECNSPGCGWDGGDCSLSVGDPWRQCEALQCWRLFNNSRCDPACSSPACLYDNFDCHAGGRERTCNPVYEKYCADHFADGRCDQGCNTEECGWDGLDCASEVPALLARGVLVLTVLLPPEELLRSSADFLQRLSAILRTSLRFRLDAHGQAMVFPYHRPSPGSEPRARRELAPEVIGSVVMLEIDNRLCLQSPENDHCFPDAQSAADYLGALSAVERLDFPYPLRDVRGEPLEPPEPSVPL

- binding result: binds
B1: N34 peptide (peptide)
peptide: EKYCADHFADGR
notes: NOTCH3, human, peptide centred on the helix encompassing the core dimerization motif of the NRR; also called N3 peptide
